According to the nanobody polyreactivity screen of Harvey et al. (2022):

Assay: yeast display, Sf9 membrane polyspecificity reagent, FACS + sequencing; frameworks hold sequencing errors
Method in brief: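 Nanobodies came from a synthetic yeast display library in Saccharomyces cerevisiae BJ5465, induced with galactose for 36–48 hours and stained for 1 hour at 4 °C with 10% biotinylated, detergent-solubilized Sf9 membrane reagent. Cells were enriched on streptavidin microbeads and then FACS-sorted, with low and high (top ~1%) gates set on anti-HA fluorescence for expression and streptavidin fluorescence for reagent binding. Each polyreactivity label reflects the gate a clone came from. Genes were amplified by colony PCR, sequenced by MiSeq 2 × 250 and filtered by CDR length.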

With “QVQLVESGGGLVQAGGSLRLSCSASGYTIDLYAKGWYRQAPGKERELVAAISIRGGSTYYADSVKGRFTISRDNAKNTVYLQMNSLKPEDTAVYYCATVTYRRSYIAYRGTGDYDYWGQGTQVTVSS” the “polyreactivity (PSR sort gate)” value was “low polyreactivity”.

In the case of “QVQLVESGGGLDQAGGSLRLSCAASGSTSAYYVMGWYRQAPGKERELVAAIDFSGDSTYYADSVKGRFTISRDNAKNTVYLQMISLKPEDSAVYYCAAELFFYSSLVTYEYWGQGTQVTVSS”, the “polyreactivity (PSR sort gate)” value is reported as “high polyreactivity”.

With “QVQLVESGGGLVQAGGSLRLSCAASGRIFYGYTMGCYRQAPGKETELVASITIRGSRTYYADSVKGRFTISRDNAKNTVYVQMNSLKPEDTAVYYCAADFVPARTVHRYDYWGQGTQVTVSS” the “polyreactivity (PSR sort gate)” value was “low polyreactivity”.

For “QVQLVESGGGLFQAGGSLRLSCAASGRTFNFNVMGWYRQAPGKERELVAAMSKSTGSTFYADSVKGRFTISRDNAKNTVYLQMNSLKPEDTAGYYCAAKPSRSLYYYWGQGTQVTVSS”, the “polyreactivity (PSR sort gate)” value was “high polyreactivity”.

With “QVQLVESGGGLVQAGGSLRLSCAASGSIFYYAMGWYRQAPWKERELVADISTGGSTHYADSVKGRFTISRDNAKNTVYLQMNSLKPEDTAVYYCAKEAWRYRLNFRYNYWGQGTQVTVSS” the “polyreactivity (PSR sort gate)” value was “low polyreactivity”.

In the case of “HVQLQESGGGLVQAGGSLRQSCAASGYIFPYYSMGLYRQAPGKERGLVACIAAGTTTNYADSVKGRFTISRDNAKNTVYLQMNSLKPEDAAVYYCAALNAFNTGHWYWGQGTQVTVSS”, the “polyreactivity (PSR sort gate)” value is reported as “low polyreactivity”.

With “QVQLVESGGGLVQAGGSLRLSCAASGSIFLYNTMGWYRQAPGKERELVAAISFSGVTTYYADSVKGRFTISRDNAKNTVYLQMNSLKPEDTAVYYCNKYLWKFTNSPLGDYYWGQGTQVTVSS” the “polyreactivity (PSR sort gate)” value was “high polyreactivity”.

For “QVQLVESGGGLVQAGGRLRLSCAASGFNFRYYAMGWYRQAPGKERELVAASSRSGGGTYYADSVKGRFTISRDTAQNTVYLQMNSLTPEDTAVYYCAADPSLGRGYDYWGQGTQVTVSS”, the “polyreactivity (PSR sort gate)” value was “high polyreactivity”.

With “QVQLVESGGGLVQAGGSLSLICDASRFTFGFYAMGWYRQAPGKERELHAAISTTVGSTYYADSVKGRFTISRDNAKNTVYLQMNSLKPEDTAVFYCAAEYTGYINYYIYEYWRQGTQVTVSS” the “polyreactivity (PSR sort gate)” value was “low polyreactivity”.

With “QVQLVDSGGGLVQAGGSLRLSCAASGFTFAYYAMGWYRQAPGKERELVAGISWRGGRTYYADSVKGRFTISRDNAKNTVYLQMNSLKPEDTAVYYCAKQPGNFGRFDYWGQGTKVTVSS” the “polyreactivity (PSR sort gate)” value was “high polyreactivity”.

With “QVQLVESGGGLVQAGGTLRLSCAASGFIFGPNAMGWYRQAPGKERELVAAISWIGSSTYYADSVKGRFTISRDNAKNTVYLEMNSLKPEDTAVYYCNADLWVPSYLWGDYWGQGTQVTVSS” the “polyreactivity (PSR sort gate)” value was “low polyreactivity”.

In the case of “QVQLVESGGGLVQAGGSLRLTCAASGSIFPRYAMGWYREAPGKERELVAAISFRGASTYYADSVKGRFTISRDTEKNTVYLQMNSLKPEDTAVYYWNAVSRSLNYDYWGQGTQVTVSS”, the “polyreactivity (PSR sort gate)” value is reported as “high polyreactivity”.

In the case of “QVQLEESGGGLVQAGGSLRLSCAASGFIFTPYAMGWYRQAPGKERELVAAISRSGGSTYYADSVKGRFTISRDNAKNTVYLQMNSLKPEDTAVYYCAADVYRTAYYYGSYYWGQGTQVTVSS”, the “polyreactivity (PSR sort gate)” value is reported as “high polyreactivity”.

With “QVQLVESGGGLVQAGGSLRLSCAASGFTFVAYAMGWYRQAPGKERELVAAISKSGGSTYYADSVKGRFTISRDNAKNSVYLQMNRLKPEDTAVYYCAARYYAYRSDYWGQGTQVTVSS” the “polyreactivity (PSR sort gate)” value was “high polyreactivity”.

For “QVQLEESGGGLVQAGGSLRLSCAASGLISSPNAMGWYRQAPGKERELVAAITRRGGSTYYADSVKGRFTISRDNAMNTVYLQINSLKPEDTAVYYCAKATGRPGYDYWGQGTQVTVSS”, the “polyreactivity (PSR sort gate)” value was “high polyreactivity”.

For “QVQLVESGGGLVQAGGSLRLSCAAYGSTFTRYTMGWYRQAPGKDRELVASSTRTGSTNYADSVKGRFTISRDNAKNTVYLQMYSLKPEDTAVYYCAGGRYYSYRFSFGYWGQGTQVTVSS”, the “polyreactivity (PSR sort gate)” value was “high polyreactivity”.

With “QGQLVESGGGLVQAGGSLRLSCAASGRTFPRYAMGWYRQAPGKERELVAVISFSGDSTSYADSVKGRFTISRDNAKNTVYLQMNSQKPEDTAVYYCKADYKSTVVRYSGSRNYWGQGTQVTVSS” the “polyreactivity (PSR sort gate)” value was “low polyreactivity”.

For “QVQLVESGGGLVQAGGSLRLSCAASGITFYYYAMGWYRQAPGKERELVAAINWSGTSTYYADSVKGRFTISRDNAKNTVYLQMNSLKPEDTAVYYCNAERGRSFWWAYDYWGQGTQVTVSS”, the “polyreactivity (PSR sort gate)” value was “low polyreactivity”.

In the case of “QVQLVESGGRLVQAGGILRLSCAASGSTSHYYAMGWSRQAPGKERELVASITCSGGSTYYADSVKGRFTISRDNAKNTVYLQMNSLKPEATAVYYCNAQERRVRDYDYWGQGTQVTVSS”, the “polyreactivity (PSR sort gate)” value is reported as “low polyreactivity”.

For “QVQLVESGGGLVQAGGSLRLSCAASGSTLERYTMGWYRQAPGKERELVAAIRWSGTSTYYADSVKGRFTISRDNAKNTVYLQMKSLKPEDTAVYYCARVGFSRYYRTMYYWGQGTQVTVSS”, the “polyreactivity (PSR sort gate)” value was “high polyreactivity”.

In the case of “QVQLVESGGGLVQAGGSLRLSCAASGFTFPYYAQGWYRQAPGKETELVATISTGSGVSTYDADSVKGRFTISRDNAKNTVYLQMNSLKPEDTAVYYCAAVFGWRRYVTYDYWGQGTQVTVSS”, the “polyreactivity (PSR sort gate)” value is reported as “low polyreactivity”.

With “QVHLVESGGGLVQAGGSHRLRCAASGRIFSGYAKGRYRQAPGKERELVAAITQSGGSTSYADSVKGRFTISRDNAKNTVYLQMIRLKPEDTAVYYCNVDDSTWIGAYRRYDYWGQGTQVTVSS” the “polyreactivity (PSR sort gate)” value was “low polyreactivity”.

With “QVQIVESGGGLVQAGGSLRLSCAASGITFRFYALGWYRQATGKERELVAAISWSGGSTNYADSVKGRFTISRDNAKNTVYLQMNSLKPEDTAVYYCNVVGKYYSGGTYEYWGQGTQVTVSS” the “polyreactivity (PSR sort gate)” value was “high polyreactivity”.

For “QVQLVESGGGLVQAGGSLRLSCAASGRIFGLNAMGWYRQAPGKEREFVAAITWRGGRTYYADSVKGRFTISRDNAKNTVYLQMNSLKPEDTAVYYCAADGGSTLDYYWGQGTQVTVSS”, the “polyreactivity (PSR sort gate)” value was “low polyreactivity”.

In the case of “QVQLVDSGGGLVQAGGSLRLSCAASGSIITYYAMGWYRQAPGKERELVAGISRRGASTYYADSVKGRFTISRDNAKNTVYLQMNSLNPEDTEVYYCAAVPYYYYGFDYWGQGTQVTVSS”, the “polyreactivity (PSR sort gate)” value is reported as “high polyreactivity”.

In the case of “QVQLVESGGGLVQAGGSLRLSCAASGRTFPWKVMGWYRQPPGKERELVAAITRSGGSTYYADSVKGRFTISRDNAKNTVYLQMNSLKQEDTAVYYCAKRGYTSSRRWIYDYWGQGTQVTVSS”, the “polyreactivity (PSR sort gate)” value is reported as “high polyreactivity”.

For “QVQLVESGGGLVQAGGSLRLSCAASGSTFRLYTMGWYRQAPGKERELVASIRGSGGRTYYADSVKGRFTISRDNAKNTVYLQMNSLKPEDTAVYYCNAESYSTWSFGHRYEYDYWGQGTQVTVSS”, the “polyreactivity (PSR sort gate)” value was “low polyreactivity”.

In the case of “QVQLEESGGGLVQAGGSLRLSCAASGIIIKYYAMGWYSQAPGKESELVAAISSSGGKTYYADSVKGRFTISRDNAKNTVYLQMKSLKPEDTGVDYCAAQRYVRYKYDYWGQGTQVTVSS”, the “polyreactivity (PSR sort gate)” value is reported as “high polyreactivity”.

With “QVQLVESGGGLVQAGGSLRLSCAASGSTFTGNAMGWYRQAPGKERELVASIRRIGSPYYADSVKGRFTISRDNAKNTVDLQMISLKPEDTAVFYCAAAVKIRTPYQYGYWGQGTQVTVSS” the “polyreactivity (PSR sort gate)” value was “high polyreactivity”.

For “QLQLVESGGGLDQAGVSLRLSCAASGFIFRNYAIGSYRQAPGNESELVAAITRSGTSTYYADSVKGRFSISRDNAKNTVYLQMNSLKPEDTAVYYCNTRYWLYYHRFDYWGQGTQVTVSS”, the “polyreactivity (PSR sort gate)” value was “high polyreactivity”.

With “QVQLVESGGGLVQAGGSLRLSCPASGSTFSWYAMGWSRQEPGKERELVAAISYSGGTYYADSVKGRFTISRDNAKNTVYLQKNSLKPEDTAVYYCAAQRTRYGYDYWGQGTQVTVSS” the “polyreactivity (PSR sort gate)” value was “high polyreactivity”.

With “QVQLVESGVGLVQAGGSLRLSCAASGRTFWSYAMGLYRQAPGKERELVAAISRGGSRTYYADSVKGRFTISRDNAKNTVYLQMNSLKPEDTAVYYCAADPTASGHFLGQVDYWGQGTQVTVSS” the “polyreactivity (PSR sort gate)” value was “high polyreactivity”.

With “QVHLVESGGGLVQAGGSLRLSCAASGVIFSSYAMGWYRQAPGKERELVAAISTGDGSTTYADSVKGRFTISRDNAKNTVYLQMNSLIPEDTAVYYCNVKYRSSYRTDFDYWGQGTQVTVSS” the “polyreactivity (PSR sort gate)” value was “low polyreactivity”.

With “QVQLLESGGGLVQAGGSLRLSCAPSGRTLVHYGMGWYRHAPGKERELVAAISYSGGRTYYADSVKGRVTISRDNAKNTVYLQMNSLKPEDTAVYYCAKDFGSYQRRYGYWGQGTQVTVSS” the “polyreactivity (PSR sort gate)” value was “high polyreactivity”.

In the case of “QVQLVESGGGLVQAGGSLRLSCAASGRTFGNNAMGWYRQAPGKERELVAAISRSGGSTYYADSVKGRFTISRDNAKNTVYLQMNSLKPEDTAVYYCAARLYGGYDWGQGTQVTVSS”, the “polyreactivity (PSR sort gate)” value is reported as “high polyreactivity”.

For “QVQLVESGGGLVQAGGSLRLSCAASGRIFGYYAMGWYRQAPGKERELVAAISSGGNTNYADSVKGRFTISRDNAKNTVYLQMYSLKPEDTAVFYCAAYHFSFGWIRVDYWGQGTQVTVSS”, the “polyreactivity (PSR sort gate)” value was “high polyreactivity”.

For “QVQIVESGRGLVQAGGSLRLSCAASGSIFKKYAMGWYRQAPGKERELVAAISSRGGRTYYADSVKGRFTISRDNAKNTVYLQMNSLKPEDTAVYYCNTDISQPGAYDYWGQGTQVTVSS”, the “polyreactivity (PSR sort gate)” value was “high polyreactivity”.

In the case of “QVQLVESGGGLVQAGGSLRLSCAASGSIFWLYAMGWYRQAPGKEREFVAAITTSGSSTRYADSVKGRFTISRDNAKNTVYLQMNSLKPEDTAVYYCAARNRTFFQPTYYYWGQGTQVTVSS”, the “polyreactivity (PSR sort gate)” value is reported as “high polyreactivity”.

In the case of “QVQLVESGGGLVQAGGSLRLSCAASGRNFPRYAMGWYRQAPGKERELVAAISWRGGSTRYADSVKGRFTISRDNEKNTVYLQMNSLKPEDTAVYYCAAEFWFFPGWAYEYWGQGTQVTVSS”, the “polyreactivity (PSR sort gate)” value is reported as “high polyreactivity”.

In the case of “QVQLVESGGGLVQAGGSLRLSCAASGFIFGTYAMGWYRQAPGKEREFVAAITTSGSSTRYADSVKGRFTISRDNAKNTVYLQMNSLKPEDTAVYYCAARNRTFFQPTYYYWGQGTQVTVSS”, the “polyreactivity (PSR sort gate)” value is reported as “high polyreactivity”.

With “QVQLVESGGGLVQAGGSLRLSCAASGRTFWYNAMGWYRPAPGKERELVAAIRGSGGSTYYADSVKGRFTISRDNAKNTVYLQLNSLKPEDTAVYYCAARGFYRRTYQYENNYWGQGTQVTVSS” the “polyreactivity (PSR sort gate)” value was “high polyreactivity”.

With “QFQLVESGGGLVQAGASLRLSCAASGSISKSYAMGWYRQAPGKERELVAAISWRGGSTYADSVKGRFTISRDNAKNTVYLQMNCLKPEDTAVYYCAATNYGTFWGGQSERYDYWGQGTQVTVSS” the “polyreactivity (PSR sort gate)” value was “low polyreactivity”.

With “QVQLVESGGGLVQAGGSLRLSCAASGSIFVYNDMGWYRQAPGKERELVAGIDWSGDRTYADSVKGRFTISRDNAKNTVYLQLNSLKPEDTAVYYCNADDWRWDEIIPYAVDYWGQGTQVTVSS” the “polyreactivity (PSR sort gate)” value was “low polyreactivity”.
